Measurements from the supplement of paper PMC10567573.

B1: ANKRD40 (parent)
chain: VCCCELGVNPDQVEKIRKLPNTLL

Variants of: B1
Assay: protein stability index of a GFP-peptide fusion (GPS, HEK-293T) (PSI 1-6); higher = more stable
Details: c terminus: a fixed tail appended
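Also: lentivirally expressed fusions sorted by FACS into six bins by GFP to DsRed ratio, PSI derived from sequencing read proportions per bin multiplied by bin number.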

Row | Variant | protein stability index
1 | VCCCELGVNPDKVEKIRKLPNTLL | 1.76
2 | VCCCELGVNPDAVEKIRKLPNTLL | 2.09
3 | VCCCELGVNPDDVEKIRKLPNTLL | 2.29
4 | VCCCELGVNPDGVEKIRKLPNTLL | 2.07
5 | VCCCELGVNPDRVEKIRKLPNTLL | 1.67
6 | VCCCELGVNPDVVEKIRKLPNTLL | 2.24
7 | VCCCELGVNPDTVEKIRKLPNTLL | 1.76
8 | VCCCELGVNPDEVEKIRKLPNTLL | 2.16
9 | VCCCELGVNPDIVEKIRKLPNTLL | 2.38
10 | VCCCELGVNPDHVEKIRKLPNTLL | 1.42
11 | VCCCELGVNPDPVEKIRKLPNTLL | 1.86
12 | VCCCELGVNPDYVEKIRKLPNTLL | 1.21
13 | VCCCELGVNPDNVEKIRKLPNTLL | 1.75
14 | VCCCELGVNPDSVEKIRKLPNTLL | 2.3
15 | VCCCELGVNPDFVEKIRKLPNTLL | 2.14
16 | VCCCELGVNPDLVEKIRKLPNTLL | 2.52
17 | VCCCELGVNPDCVEKIRKLPNTLL | 2.06
18 | VCCCELGVNPDMVEKIRKLPNTLL | 2.03
19 | VCCCELGVNPDWVEKIRKLPNTLL | 2.29
20 | VCCCELGWNPDQVEKIRKLPNTLL | 1.58
21 | VCCCELGQNPDQVEKIRKLPNTLL | 1.85
22 | VCCCELGLNPDQVEKIRKLPNTLL | 1.34
23 | VCCCELGPNPDQVEKIRKLPNTLL | 1.79
24 | VCCCELGYNPDQVEKIRKLPNTLL | 1.77

Row | Variant | protein stability index
25 | VCCCELGINPDQVEKIRKLPNTLL | 1.79
26 | VCCCELGSNPDQVEKIRKLPNTLL | 2.4
27 | VCCCELGNNPDQVEKIRKLPNTLL | 1.99
28 | VCCCELGRNPDQVEKIRKLPNTLL | 1.81
29 | VCCCELGKNPDQVEKIRKLPNTLL | 2.2
30 | VCCCELGTNPDQVEKIRKLPNTLL | 1.62
31 | VCCCELGVNSDQVEKIRKLPNTLL | 1.89
32 | VCCCELGVNYDQVEKIRKLPNTLL | 1.31
33 | VCCCELGVNADQVEKIRKLPNTLL | 2.14
34 | VCCCELGVNCDQVEKIRKLPNTLL | 1.94
35 | VCCCELGVNFDQVEKIRKLPNTLL | 2.23
36 | VCCCELGVNKDQVEKIRKLPNTLL | 2.02
37 | VCCCELGVNTDQVEKIRKLPNTLL | 1.98
38 | VCCCELGVNDDQVEKIRKLPNTLL | 2.2
39 | VCCCELGVNEDQVEKIRKLPNTLL | 2.11
40 | VCCCELGVNRDQVEKIRKLPNTLL | 2.35
41 | VCCCELGVNMDQVEKIRKLPNTLL | 1.55
42 | VCCCELGVNVDQVEKIRKLPNTLL | 2.01
43 | VCCCELGVNGDQVEKIRKLPNTLL | 2.17
44 | VCCCELGVNQDQVEKIRKLPNTLL | 2.02
45 | VCCCELGVNIDQVEKIRKLPNTLL | 1.8
46 | VCCCELGVNLDQVEKIRKLPNTLL | 2.17
47 | VCCCELGVNWDQVEKIRKLPNTLL | 1.88
48 | VCCCELGVNNDQVEKIRKLPNTLL | 2

Row | Variant | protein stability index
49 | VCCCELGVNHDQVEKIRKLPNTLL | 2
50 | VCCCELGVNPGQVEKIRKLPNTLL | 2.17
51 | VCCCELGVNPRQVEKIRKLPNTLL | 2.63
52 | VCCCELGVNPHQVEKIRKLPNTLL | 1.26
53 | VCCCELGVNPNQVEKIRKLPNTLL | 1.42
54 | VCCCELGVNPVQVEKIRKLPNTLL | 1.46
55 | VCCCELGVNPQQVEKIRKLPNTLL | 1.63
56 | VCCCELGVNPPQVEKIRKLPNTLL | 1.24
57 | VCCCELGVNPSQVEKIRKLPNTLL | 1.9
58 | VCCCELGVNPIQVEKIRKLPNTLL | 1.93
59 | VCCCELGVNPLQVEKIRKLPNTLL | 1.91
60 | VCCCELGVNPKQVEKIRKLPNTLL | 1.89
61 | VCCCELGVNPEQVEKIRKLPNTLL | 2.18
62 | VCCCELGVNPYQVEKIRKLPNTLL | 2.55
63 | VCCCELGVNPMQVEKIRKLPNTLL | 2.41
64 | VCCCELGVNPTQVEKIRKLPNTLL | 1.69
65 | VCCCELGVNPAQVEKIRKLPNTLL | 1.79
66 | VCCCELGVNPWQVEKIRKLPNTLL | 1.98
67 | VCCCELGVNPFQVEKIRKLPNTLL | 1.49
68 | VCCCELGVNPCQVEKIRKLPNTLL | 2.01
69 | VCCCELGVSPDQVEKIRKLPNTLL | 2.3
70 | VCCCELGVAPDQVEKIRKLPNTLL | 1.47
71 | VCCCELGVEPDQVEKIRKLPNTLL | 1.7
72 | VCCCELGVTPDQVEKIRKLPNTLL | 1.68

Row | Variant | protein stability index
73 | VCCCELGVMPDQVEKIRKLPNTLL | 2.23
74 | VCCCELGVVPDQVEKIRKLPNTLL | 1.75
75 | VCCCELGVKPDQVEKIRKLPNTLL | 2.33
76 | VCCCELGVIPDQVEKIRKLPNTLL | 1.88
77 | VCCCELGVYPDQVEKIRKLPNTLL | 1.78
78 | VCCCELGVDPDQVEKIRKLPNTLL | 2.01
79 | VCCCELGVLPDQVEKIRKLPNTLL | 1.97
80 | VCCCELGVHPDQVEKIRKLPNTLL | 1.83
81 | VCCCELGVCPDQVEKIRKLPNTLL | 1.66
82 | VCCCELGVQPDQVEKIRKLPNTLL | 1.62
83 | VCCCELGVGPDQVEKIRKLPNTLL | 1.96
84 | VCCCELGVWPDQVEKIRKLPNTLL | 2.8
85 | VCCCELGVRPDQVEKIRKLPNTLL | 1.92
86 | VCCCELGVPPDQVEKIRKLPNTLL | 2
87 | VCCCELGVNPDQEEKIRKLPNTLL | 2.78
88 | VCCCELGVNPDQAEKIRKLPNTLL | 1.71
89 | VCCCELGVNPDQCEKIRKLPNTLL | 1.91
90 | VCCCELGVNPDQIEKIRKLPNTLL | 1.75
91 | VCCCELGVNPDQHEKIRKLPNTLL | 1.77
92 | VCCCELGVNPDQDEKIRKLPNTLL | 3.11
93 | VCCCELGVNPDQFEKIRKLPNTLL | 1.4
94 | VCCCELGVNPDQGEKIRKLPNTLL | 2.5
